From paper PMC5148612, “Mechanism of cargo-directed Atg8 conjugation during selective autophagy” (eLife, 2016)
Values belong to the binder of their own block, whether it stands above or below them.

Key:
Conditions in all cases: both partners purified
[1] = molecular target: T1, Atg12~Atg5-Atg16 complex (S. cerevisiae, UniProt P38316 1-186; Q12380 1-294; Q03818 1-150, conjugated to Atg5 (Atg12~Atg5 protein conjugate) | conjugated to Atg12); assay: pull-down; GST-fused bait 5 µM and GST-free prey 5 µM with glutathione Sepharose 4B, 1 hr at 4°C; washed with 25 mM HEPES pH 7.5, 150 mM NaCl, 1 mM DTT and 0.1% TritonX100; Western blot (Figures 1A, 1C, 2A, 2C)
T1 construct: Atg12, S. cerevisiae; Atg5, S. cerevisiae; Atg16, S. cerevisiae; conjugate made by co-expression with Atg7 and Atg10 (SMC131); details in Romanov et al., 2012; also called E3-like complex; source: E. coli Rosetta pLysS; Atg12~Atg5 conjugate mixed 1:1 with purified Atg16, purified by size exclusion chromatography; not shown: GST, N-terminal, cleaved; copies: + +
T1 sequence (looked up) 1: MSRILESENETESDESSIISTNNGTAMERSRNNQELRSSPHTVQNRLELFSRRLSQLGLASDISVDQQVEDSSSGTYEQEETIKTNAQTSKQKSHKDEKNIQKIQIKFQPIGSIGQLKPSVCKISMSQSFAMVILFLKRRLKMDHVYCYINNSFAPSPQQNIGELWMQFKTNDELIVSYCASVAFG
T1 sequence (looked up) 2: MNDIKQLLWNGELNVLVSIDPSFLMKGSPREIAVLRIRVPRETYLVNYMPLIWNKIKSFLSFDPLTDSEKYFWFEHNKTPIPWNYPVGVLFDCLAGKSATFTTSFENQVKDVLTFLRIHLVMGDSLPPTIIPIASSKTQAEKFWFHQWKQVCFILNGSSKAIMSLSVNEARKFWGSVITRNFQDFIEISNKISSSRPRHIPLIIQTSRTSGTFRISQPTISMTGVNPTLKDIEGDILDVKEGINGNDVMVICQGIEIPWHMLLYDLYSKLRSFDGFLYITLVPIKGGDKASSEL
T1 sequence (looked up) 3: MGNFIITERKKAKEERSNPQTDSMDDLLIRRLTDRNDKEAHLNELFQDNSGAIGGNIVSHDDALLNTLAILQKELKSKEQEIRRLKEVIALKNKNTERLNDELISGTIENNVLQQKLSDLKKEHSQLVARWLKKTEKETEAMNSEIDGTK

[2] = molecular target: T2, GST-Atg19 (S. cerevisiae, UniProt P35193 1-415); assay: pull-down; GST-fused bait 20 µM and GST-free prey 5 µM with glutathione Sepharose 4B, 1 hr at 4°C; washed with 25 mM HEPES pH 7.5, 150 mM NaCl, 1 mM DTT; anti-Atg5 Western blot (Figure 2E, Figure 3—figure supplement 1, Figure 4C)
T2 construct: Atg19, S. cerevisiae cargo receptor; also called full length GST-Atg19; Atg19 full length; source: E. coli Rosetta pLysS, purified; not shown: GST, N-terminal, kept
T2 sequence (looked up): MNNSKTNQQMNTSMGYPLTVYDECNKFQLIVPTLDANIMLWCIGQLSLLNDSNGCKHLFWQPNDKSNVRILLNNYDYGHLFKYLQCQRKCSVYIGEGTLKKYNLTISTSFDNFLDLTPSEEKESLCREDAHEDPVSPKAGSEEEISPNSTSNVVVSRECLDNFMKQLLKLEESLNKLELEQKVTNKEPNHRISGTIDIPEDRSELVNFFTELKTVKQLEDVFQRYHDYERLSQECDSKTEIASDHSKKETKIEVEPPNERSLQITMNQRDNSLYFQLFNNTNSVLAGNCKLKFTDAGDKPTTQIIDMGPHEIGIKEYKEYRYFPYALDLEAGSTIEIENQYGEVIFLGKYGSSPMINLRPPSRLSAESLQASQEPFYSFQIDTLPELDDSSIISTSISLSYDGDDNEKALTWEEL

[3] = molecular target: T3, Atg19 (S. cerevisiae, UniProt P35193 1-415); assay: SEC; Atg19 and Atg5-Atg16 (1–46) premixed at 55 µM, concentrated to 580 µM, Superose 6 PC 3.2/30, 25 mM HEPES pH 7.5, 150 mM NaCl, 1 mM DTT; fractions on Coomassie gels
T3 construct: Atg19, S. cerevisiae; printed without a tag; also called Atg19 wild type
T3 sequence (looked up): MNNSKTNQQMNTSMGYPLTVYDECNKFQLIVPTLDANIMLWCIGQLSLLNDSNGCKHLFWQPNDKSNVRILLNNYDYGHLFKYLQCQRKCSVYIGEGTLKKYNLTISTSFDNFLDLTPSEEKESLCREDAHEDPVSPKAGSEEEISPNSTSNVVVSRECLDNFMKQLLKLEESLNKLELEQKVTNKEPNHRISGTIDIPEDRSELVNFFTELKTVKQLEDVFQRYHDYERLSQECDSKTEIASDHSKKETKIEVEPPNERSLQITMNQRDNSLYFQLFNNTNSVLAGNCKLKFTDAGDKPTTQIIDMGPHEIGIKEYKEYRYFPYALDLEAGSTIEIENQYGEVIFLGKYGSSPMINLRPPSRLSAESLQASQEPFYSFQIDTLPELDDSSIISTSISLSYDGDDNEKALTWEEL

binding result [1]: binds
B1: GST-Atg34 (natural protein, S. cerevisiae, UniProt Q12292 1-412, looked up)
chain: MKIAVETTLFDFFVIDQFKKSTFSAPNTKVDTIKGCINKFIEQFNVYDEQHIFWQPPGKSNVRLLSNANDFGQLGNFLHKKIKCNIFIGEEALRKYDLNICGPYDKFVENSDPSVKKVVNRDDVMLSRKCLNIISEQLSILEKSISKAQNQVLQSSEVEGKKCIILPEDKPELIKFFSKFETSVQLQEVYEGYKVYEKLLQKFGGQKKRMESFLNENTPMSGAEAIKQINISEELKEKGERLTTPNDPLLHVEVSNEDNSLHFILYNKTNIIIPGNCTFEFSSQISEVFSIKMGPHEIGIKGQKELWFFPSLPTPLSNYTMKVVNQDGETILVGKCADSNEITLKSPLASFSTGSFQTGSFHTLQDPTNVFRADALSSPDESSIMSTPFLGETDEVYNSGSTLSRPFTWEEI
notes: Atg34, S. cerevisiae cargo receptor; also called α-mannosidase (Ams1) receptor; source: E. coli Rosetta pLysS, purified; not shown: GST, N-terminal, kept

binding result [2]: binds
B2: Atg5(K137E)-Atg16 (1–46) (complex, S. cerevisiae)
chain 1: MNDIKQLLWNGELNVLVSIDPSFLMKGSPREIAVLRIRVPRETYLVNYMPLIWNKIKSFLSFDPLTDSEKYFWFEHNKTPIPWNYPVGVLFDCLAGKSATFTTSFENQVKDVLTFLRIHLVMGDSLPPTIIPIASSETQAEKFWFHQWKQVCFILNGSSKAIMSLSVNEARKFWGSVITRNFQDFIEISNKISSSRPRHIPLIIQTSRTSGTFRISQPTISMTGVNPTLKDIEGDILDVKEGINGNDVMVICQGIEIPWHMLLYDLYSKLRSFDGFLYITLVPIKGGDKASSEL
chain 2: MGNFIITERKKAKEERSNPQTDSMDDLLIRRLTDRNDKEAHLNELF
notes: Atg5, S. cerevisiae; Atg16, S. cerevisiae, first 46 amino acids; source: E. coli, co-expressed and purified in complex

binding result [3]: binds
B3: Atg5-Atg16 (1–46) for analytical size exclusion chromatography (complex, S. cerevisiae)
chain 1: MNDIKQLLWNGELNVLVSIDPSFLMKGSPREIAVLRIRVPRETYLVNYMPLIWNKIKSFLSFDPLTDSEKYFWFEHNKTPIPWNYPVGVLFDCLAGKSATFTTSFENQVKDVLTFLRIHLVMGDSLPPTIIPIASSKTQAEKFWFHQWKQVCFILNGSSKAIMSLSVNEARKFWGSVITRNFQDFIEISNKISSSRPRHIPLIIQTSRTSGTFRISQPTISMTGVNPTLKDIEGDILDVKEGINGNDVMVICQGIEIPWHMLLYDLYSKLRSFDGFLYITLVPIKGGDKASSEL
chain 2: MGNFIITERKKAKEERSNPQTDSMDDLLIRRLTDRNDKEAHLNELF
notes: Atg5, S. cerevisiae; Atg16, S. cerevisiae, first 46 amino acids; source: E. coli Rosetta pLySS, co-expressed, purified (glutathione beads, thrombin, Superdex 200); not shown: GST, N-terminal, cleaved
